T1: biotinylated TGPAvi (Galaxea fascicularis (coral), biotin on the Avi-tag (BirA))
T1 chain 1: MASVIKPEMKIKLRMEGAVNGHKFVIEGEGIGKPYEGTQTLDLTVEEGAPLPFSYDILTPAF
T1 chain 2: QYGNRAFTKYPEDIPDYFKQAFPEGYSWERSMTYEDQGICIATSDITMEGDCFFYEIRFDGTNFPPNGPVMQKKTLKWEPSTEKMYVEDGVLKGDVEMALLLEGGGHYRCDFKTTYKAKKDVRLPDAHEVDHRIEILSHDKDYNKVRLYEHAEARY

B1: sybody 66 (VHH)
VHH: QVQLVESGGGLVQAGGSLRLSCAASGFPVMENSMYWYRQAPGKEREWVAAITSQGSWTWYADSVKGRFTISRDNAKNTVYLQMNSLKPEDTAVYYCHVSVGTNYTGQGTQVTVS
B2: sybody 68 (VHH)
VHH: QVQLVESGGGLVQAGGSLRLSCAASGFPVNAVTMWWYRQAPGKEREWVAAIKSQGAGTWYADSVKGRFTISRDNAKNTVYLQMNSLKPEDTAVYYCHVYVGAYRYEGRGTQVTVS
B3: sybody 44 (VHH)
VHH: QVQLVESGGGLVQAGGSLRLSCAASGFPVGRASMWWYRQAPGKEREWVAAISSYGWVTAYADSVKGRFTISRDNAKNTVYLQMNSLKPEDTAVYYCEVSVGTGYRGQGTQVTVS
B4: sybody 92 (VHH)
VHH: QVQLVESGGGLVQAGGSLRLSCAASGFPVDTQWMHWYRQAPGKEREWVAAISSTGRSTFYADSVKGRFTISRDNAKNTVYLQMNSLKPEDTAVYYCTVYVGNRYRGQGTQVTVS

Molecular target: T1, biotinylated TGPAvi
Assay: BLI

Kd	Binder
7.8 nM	B1
10.4 nM	B2
4.4 nM	B3
3.3 nM	B4

Molecular target: T1, biotinylated TGPAvi
Assay: BLI
Remark: another data set of the same source

koff	Binder
0.0013 s⁻¹	B1
0.0012 s⁻¹	B2
0.00085 s⁻¹	B3
0.00066 s⁻¹	B4

— PMC7729955 (2020)
